Reference: article PMC10465942, “N-acetylmuramic acid recognition by MurK kinase from the MurNAc auxotrophic oral pathogen Tannerella forsythia” (The Journal of Biological Chemistry, 2023)

How the values were obtained:
purified protein [1] = substrate: CC(=O)N[C@@H]1[C@@H](O[C@H](C)C(=O)O)[C@H](O)[C@@H](CO)O[C@H]1O; experiment: purified protein; design: species or system Tannerella forsythia; details: active site, MurNAc-binding site; hydrogen bonds to G67, D95, N119, D141; lactyl ether at S133, P134, L135
purified protein [2] = substrate: CC(=O)N[C@@H]1[C@@H](O[C@H](C)C(=O)O)[C@H](O)[C@@H](CO)O[C@H]1O; experiment: purified protein; assay type: binding, Tannerella forsythia; details: active site, very similar to MurK MurNAc site; T69, R132, A133 differ

B1: MurK (murein sugar kinase) (Tannerella forsythia 92A2) (protein)
chain: MILIADSGSTKTHWNVLDRGQVVGEIFTKGMNPFFQTPEEMGREIERTLLPQLNSNRFCEVHFFGAGCIPEKVPIVRNVLKGCLDVSSLIEVDTDMLAAAKASCGRSPGIVCIMGTGSNSCFYDGEKITANVSPLGFILGDEGSGAVLGKLLIGDLLKNQMGEELKEKFLRQYELTPANIIERVYRQPFPNRFLAGISPFLAENIEHPAIHSLVLNAFKSFLTRNVMQFDYTRYKAHFIGSVAYYYKDILEEAAAATGIRTGTIVRNPMEGLRTYYSTVAETV
notes: recombinant His6-tagged protein expressed in E. coli
Question: B1 was tested. Which Km (purified protein [1]) did it give?
Answer: 180 ± 40 µM

Question: And the kcat (purified protein [1])?
Answer: 42 ± 4.2 s⁻¹

Question: What about the kcat/Km (purified protein [1]) of the same protein?
Answer: 230000 ± 56000 M⁻¹ s⁻¹

B2: K1058 (Tannerella forsythia 92A2) (protein)
chain: MKLIAESGSTKTEWSLVEGEHLIQRVFTEGLNPFFQTRREISRSIRLGLPDSFFKRKLEQVFFYGAGCTSAEKKSVVEASLVAQFKTPAYVESDLLAAARGLFQHDSGIACILGTGSNSCFYDGHVIVKNVRAGGYILGDEGSGAALGKQFLSDVLKKLAPQVLIDDFFEKYDLTPHDVMDVVYNRPFPNRFLAEQSCFLADYLRLDYVKGLLLSNLRSFFLRNVMQYDYLNYPIRFVGSVAYNYADLLHQVGKEFGVELSVVEETPMGGLIKYHAFPPDDPES
notes: as for B1
Question: B2 was tested. Which Km (purified protein [2]) did it give?
Answer: 28 ± 10 µM

Question: What about the kcat (purified protein [2]) of the same protein?
Answer: 0.18 ± 0.01 s⁻¹

Question: And the kcat/Km (purified protein [2])?
Answer: 6400 ± 2900 M⁻¹ s⁻¹
